Source: patent US20200140815A1 (CRISPR THERAPEUTICS, published 2020)

How the values were obtained:
murine PTK7 = molecular target: T1, murine PTK7 (murine, UniProt Q8BKG3 23-1062); experiment: flow cytometry dose titration (200 nM-0.0032 nM) on murine 3T3L1 and M158 cells; secondary APC-conjugated human IgG-Fc antibody
T1 construct: whole, on cells; also called mouse antigen; PTK7 on murine 3T3L1 and M158 cells
T1 sequence (looked up): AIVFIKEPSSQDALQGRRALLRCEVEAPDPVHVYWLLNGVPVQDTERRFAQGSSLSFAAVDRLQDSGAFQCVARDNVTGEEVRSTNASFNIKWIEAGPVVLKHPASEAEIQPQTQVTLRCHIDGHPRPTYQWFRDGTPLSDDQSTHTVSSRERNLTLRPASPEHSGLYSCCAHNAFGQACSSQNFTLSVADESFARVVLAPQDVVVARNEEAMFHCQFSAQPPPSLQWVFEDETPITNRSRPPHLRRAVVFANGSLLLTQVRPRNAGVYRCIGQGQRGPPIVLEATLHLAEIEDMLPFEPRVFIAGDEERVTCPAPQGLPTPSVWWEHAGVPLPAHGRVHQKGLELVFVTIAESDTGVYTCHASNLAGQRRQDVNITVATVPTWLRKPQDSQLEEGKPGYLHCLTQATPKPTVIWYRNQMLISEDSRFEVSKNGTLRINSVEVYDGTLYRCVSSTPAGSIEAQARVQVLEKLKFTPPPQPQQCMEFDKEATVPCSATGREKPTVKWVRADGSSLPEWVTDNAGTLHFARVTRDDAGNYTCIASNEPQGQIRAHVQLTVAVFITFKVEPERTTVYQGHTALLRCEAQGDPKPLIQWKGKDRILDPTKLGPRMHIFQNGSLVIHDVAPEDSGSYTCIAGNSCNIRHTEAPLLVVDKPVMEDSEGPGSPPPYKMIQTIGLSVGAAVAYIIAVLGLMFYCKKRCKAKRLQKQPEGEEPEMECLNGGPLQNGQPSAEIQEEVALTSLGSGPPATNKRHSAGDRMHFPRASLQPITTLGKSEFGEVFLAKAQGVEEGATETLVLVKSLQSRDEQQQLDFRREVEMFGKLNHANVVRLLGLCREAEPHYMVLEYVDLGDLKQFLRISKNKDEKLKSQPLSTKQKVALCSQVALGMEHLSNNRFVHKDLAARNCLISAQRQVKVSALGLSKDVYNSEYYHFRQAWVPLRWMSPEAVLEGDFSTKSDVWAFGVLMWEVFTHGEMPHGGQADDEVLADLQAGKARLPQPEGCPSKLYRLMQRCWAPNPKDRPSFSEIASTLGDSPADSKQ
Protocol: (§1) To evaluate the species cross reactivity of the custom CTX181 antibody, its binding affinity was assessed in murine 3T3L1 fibroblast and murine M158 breast cancer cell lines and compared to its binding affinity in human Saos2 (osteosarcoma), A498 (renal carcinoma) and HCC70 (breast cancer) cell lines. For each cell line, a dose titration binding assay (200 nM-0.0032 nM final CTX181 antibody) was run on 2×10⁶ cells at each concentration. Cells were stained 30 min on ice with CTX181 antibody, followed by washing and 15 min stain at RT with secondary APC fluorophore conjugated human IgG-Fc antibody. Cells were assessed for staining on a Novocyte flow cytometer (Acea Biosciences).

[1] = molecular target: T2, human protein tyrosine kinase 7 (PTK7) (human, UniProt Q13308 31-1070); experiment: flow cytometry dose titration (200 nM-0.0032 nM) on human Saos2, A498 and HCC70 cells; secondary APC-conjugated human IgG-Fc antibody
T2 construct: whole, on cells; also called humPTK7; colon carcinoma kinase 4 (CCK4)
T2 sequence (looked up): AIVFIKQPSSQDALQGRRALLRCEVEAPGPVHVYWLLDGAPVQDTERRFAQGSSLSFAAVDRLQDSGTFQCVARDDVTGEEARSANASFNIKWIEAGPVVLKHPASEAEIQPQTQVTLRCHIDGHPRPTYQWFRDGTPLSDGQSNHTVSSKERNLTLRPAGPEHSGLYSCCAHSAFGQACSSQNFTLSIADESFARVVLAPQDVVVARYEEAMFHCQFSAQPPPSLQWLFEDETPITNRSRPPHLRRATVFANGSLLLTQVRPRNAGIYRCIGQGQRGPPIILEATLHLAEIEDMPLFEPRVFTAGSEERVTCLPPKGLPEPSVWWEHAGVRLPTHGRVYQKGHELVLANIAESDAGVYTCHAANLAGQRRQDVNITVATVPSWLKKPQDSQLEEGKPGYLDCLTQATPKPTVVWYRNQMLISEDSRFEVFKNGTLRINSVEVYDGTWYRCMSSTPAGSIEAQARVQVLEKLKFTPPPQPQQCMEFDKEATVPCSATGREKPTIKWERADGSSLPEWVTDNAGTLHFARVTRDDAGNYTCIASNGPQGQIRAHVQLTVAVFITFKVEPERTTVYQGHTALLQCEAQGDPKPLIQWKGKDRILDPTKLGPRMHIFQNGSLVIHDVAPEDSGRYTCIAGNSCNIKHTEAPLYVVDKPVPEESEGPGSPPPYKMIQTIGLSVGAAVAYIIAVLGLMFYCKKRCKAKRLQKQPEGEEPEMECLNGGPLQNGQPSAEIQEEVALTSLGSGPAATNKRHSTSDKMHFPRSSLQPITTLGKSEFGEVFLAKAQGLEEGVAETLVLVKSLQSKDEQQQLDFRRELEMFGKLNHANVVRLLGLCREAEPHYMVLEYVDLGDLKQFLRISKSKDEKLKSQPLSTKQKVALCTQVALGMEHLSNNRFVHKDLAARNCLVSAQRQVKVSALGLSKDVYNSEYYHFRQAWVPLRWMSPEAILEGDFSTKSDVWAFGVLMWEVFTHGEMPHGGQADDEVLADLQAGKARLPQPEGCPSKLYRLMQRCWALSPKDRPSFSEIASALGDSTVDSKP
Protocol: as §1

B1: CTX181 mAb (custom recombinant monoclonal anti-PTK7 antibody, Creative Biolabs) (antibody, human IgG1, kappa, V domains shown)
VH: QVQLVESGGGVVQPGRSLRLSCAASGFTFSSYGMHWVRQAPGKGLEWVAVIWDDGSNKYYVDSVKGRFTISRDNSKNTLYLQMNSLRAEDTAVYYCARDDYYGSGSFNSYYGTDVWGQGTTVTVSS
VL: EIVLTQSPATLSLSPGERATLSCRASQSVSIYLAWYQQKPGQAPRLLIYDASNRATGIPARFSGSGSGTDFTLTISSLEPEDFAVYYCQQRSNWPPFTFGPGTKVDIKR
notes: Used biotinylated for immunohistochemistry; In flow cytometry it was detected with a secondary APC-conjugated human IgG-Fc antibody; also called CTX181 antibody; CTX181 Ab
Q: Does B1 bind (murine PTK7)?
A: Result: binds

Q: Does B1 bind [1]?
A: Result: binds
